The subject of the data set is 3H-acetylated histone H4 peptide ([3H]-Ac(H41-24)).

For “flag epitope-tagged HDAC9 (HDAC9v1 with C-terminal flag tag)”, the “in vitro histone deacetylase assay (release of 3H-acetate from the peptide by immunoprecipitated enzyme)” value was “HDAC9 could deacetylate the histone peptide substrate at a level that was equivalent to UDAC3 and HDAC4”.

Values taken from US20040077046.
